test: soluble on expression in E. coli; label from the status in PepcDB or PDB records

Soluble on expression in E. coli, not soluble:
MGSDKIHHHHHHLTDMLAPRVVARLRGVTKSFDGTTVVRNVDLDFRSGEVHVLAGENGAGKSTLTKLLAGIHQPDHGTVEINGQMGPFDVKSSRTAGVTLVHQELLIAPNLTVADNLAMGQENRNRFRGLDRTATLENARAQLAHIGATFPVTMRAEELTVADHQQIEIARALAQKPKILILDEPTSALSSAETERLLRIVDELRRNGTSVIYITHRMEEIEALADIVSIMRDGSLVETMPKAEATPDAIVLRMVGRKIDSLFTAERPEPGRVVLRVEQLTNGKDIGPIDLDVRAGEVVGIGGLIGSGRSEFVRLIFGADRASSGTVSVDGSPVNVTGPGSAVRAGIALLPESRKTQGLVLDQSIAANIVLASLGHISSAGVVTPAAVKRVASKAQKRLGIKSASLGQEVTTLSGGNQQKVLFAKWLETKPKVLILDEPTRGVDVGAKAEIYQIINECAHAGVAVLVISSELPELIGLSSRVHVMREGRLVAEIDAQSLTEEAVMNHAFGIAQATQA, MGSDKIHHHHHHLTLSIEHLTGGYTQTPVIKDINFEVKNGELLGLIGLNGAGKSTTINHVIGLMRPMKGKIILDEIDLEQNPTQYKTKLAYIPELPILYDELTLKEHIELTIKAYEMNSEKAWQQAHKLLKTFRLENKLDWFPANFSKGMRQKVMIVCAFITDAELFVVDEPFLGLDPLAIDDLLKVINEKKQQGASILMSTHVLDTAEKYCDRFALLNEGELKAVGTLADFQKQFNLPNSSLNDIYLTIAKGERDE, MGSDKIHHHHHHMAAGSTLWTRIPAMQQQNHPPYTLAIAQGESISLDPSHFTPEHWQALAAVTGTSKGRYTTWFVRHPEANQDWVLRHYWRGGLMEKFSKDRYLYTGMANTRAIAELALLEKLHAEGFPVPRPVGARVRRYALWYSADILIERMPGCRDLLAWLEQGPLDEAEWKALGVCIARFHHRGVYHADLNAKNILKGPQGFALIDFDRGEIRNPANSWQQANLSRLRRSFDKEKGKLPSLAFDESCWQWLLEGYAAA, MGSDKIHHHHHHMAAINAAVLQALRTMVRSEFQNALTKTESLYLKIASVVPSNTKSNTYGWLGSMPTMREWIGARVINSIKEHGYSITNRTFETTIGICRDDVEDEVIGTYKPMVQALAQEGEEFPDDLVFELLADGFSTLCYDGQNFFDTDHPVNEKHDGTGDNVSVANMALDAAYTGEPWFLLDTTRPLKPVIFQERRKLDLNTLFNPTDPAVWTNNEFQFGTDMRCEAGFGFWQMAFANKRALNADNLWDTIEKMKAFKRDGGKKLKIRPSLLVVPSSLEQAATKLLTRELIDENGTTVENELKGKVELLVVPQL, MGSDKIHHHHHHMAAPEKTAGSKGEATQMRDAPALVGSDRQKILRAGFIPLVDASVLIAAAEFGFADREGLILDLVKDVSWANVRDRLAFRQFDIAHMLSPMPVASMLGLGSNPSPTITPFSLGRGGNAITLSTRLFARMKALTGLSETAGALENARALKLVLDDMRARGEAPPTLGMTYPFSSHNYEFRYWLAAGGIHPDHDVKLVVVPPPMTSDALAAGAIDGFCVGAPWNIVAAERGVGRIVAAKQDLWPSAPEKVIGMRPEWAESQQETVGRLLTALDAAASWCDLADNHDALSGALADPRYIGAPQSIIRRVLAGEFSIDSQGNRRVIEKYFTFHGDHANYPRQSQSLWIYSQMIRWGQAELSETGVNAALSAYRPDIYRAALGDGKAPGDADIRIEGQDEGDRFVDGFVFDPADIAGYVNSFAVRTSVPVSAPSGEA, MGSDKIHHHHHHMACGEFSGDDAAMKQTSFATAEYAGKKRQTRRERFLAEMNVVVPWARLEALIEPHYPKSGKVGRPPIGVPRMLRMYFLQQWYTLADEALEDALYDSQAMREFIGIDLGRENVPDATTLLKFRRLLEQHDLTSAILAEVNAHLTERGLLMRQGTVVDATIIAAPSSTKNEDGKRDPEMHQTKKGNQWHFGMKMHSGVDAESGLIHSVVCTAANEADVAHAHELLHGQESQVHGDSGYTGIQRRDEITTAQEEGRLRQDMDWRIAMKRGQLKAMPEGPAKAMHEWFERRKAQVRAIVEHPFHVIKNLFGYRKVSYRGISKNEARAKAHAALANLYIARRRLLAQGLSASAA, MGSDKIHHHHHHMADGAEFKVYTQRFIMEKIAYYLGQYHSLEENNAFWGEGFTEWHNVAKARPLFPSHRQPVLPGKLGFYDLRNNDTIEEQVALADSFGVTAFCHWHYWFGGKRVLYRPFDSMLKIQNSPVKVMLGWANESWTGIWHGLSDQVIFEQPYNKIELNEHAKLLADYFRHENYLKVNGKAAFLIYKPRKIPESKSYLQLLRQKVYENCGLDMYIIGTWGPGRLEVIHSADELGLDALVANNVGATFKSELSRKLYNGFWTAAKSLGLGPELRNYASTVKTLEYAHQNISGTVHSTIVTGWDNSPRSNRRALVLTNFNENSFKYAIDIAISNEKNNENKLLFIKSWNEWAEGNTLEPRFKEDWSLGKVLKKQIIKHDV, MGSDKIHHHHHHMAEEIPVYLFTGFMDSGKTSLIKDTIFENDFANGSKGLIIMCEDGDVEYDMDKLKAANIQVAEIDSEDEFAAAKLNELNMQYLPEQVFIEYNGTWGIDKIIEAELPKGWVIVQSLATVDSTTFDLYMNNMRAMMQEQVFASDVVIFNRTDDDTDRGHLRRTIKNINRKAQIVYERKDGTIDERPEELPFDINQDVIELSDADYAIWYMDAMENYKKYDGKVVKFLALVYNPDKLRKGVMVPGRFAMTCCIEDVTFIGFKCKYEDESSIPHKSWITITARVHVEFAREYKGKGPVLYPVSIEPAEKPQDELVYFS, MGSDKIHHHHHHMAEFPASLLILNGKSTDNLPLREAIMLLREEGMTIHVRVTWEKGDAARYVEEARKFGVATVIAGGGDGTINEVSTALIQCEGDDIPALGILPLGTANDFATSVGIPEALDKALKLAIAGDAIAIDMAQVNKQTCFINMATGGFGTRITTETPEKLKAALGSVSYIIHGLMRMDTLQPDRCEIRGENFHWQGDALVIGIGNGRQAGGGQQLCPNALINDGLLQLRIFTGDEILPALVSTLKSDEDNPNIIEGASSWFDIQAPHDITFNLDGEPLSGQNFHIEILPAALRCRLPPDCPLLR, MGSDKIHHHHHHMAELQEVQITEEKPLLPGQTPETAKEAELAARILLDQGQTHSVETPYGSVTFTVYGTPKPKRPAIFTYHDVGLNYKSCFQPLFRFGDMQEIIQNFVRVHVDAPGMEEGAPVFPLGYQYPSLDQLADMIPCILQYLNFSTIIGVGVGAGAYILSRYALNHPDTVEGLVLINIDPNAKGWMDWAAHKLTGLTSSIPDMILGHLFSQEELSGNSELIQKYRGIIQHAPNLENIELYWNSYNNRRDLNFERGGETTLKCPVMLVVGDQAPHEDAVVECNSKLDPTQTSFLKMADSGGQPQLTQPGKLTEAFKYFLQG, MGSDKIHHHHHHMAEQENSKDLISVLWSGADVLRSKMDANEYKNYLLGIVFYKYLSDSFLIRVYDLINDEKPESLKVALEAYKNELKGEYANDLLDELKQDRKYVIEPELTYTCFAEDARNNCFNREQLQKAFNNIEQSGELFVDLFSDIDLYSSRLGAGDQKQSDTIAELIKVIDQADLLNSDGEILGDAYEYLIGQFASETGKKAGEFYTPQAVSKILTRIAITGQENVKGLSIYDPCMGSGSLLLNAKRYYKGDTNYIKYYGQELNMSTYNLARMNMFLHDVAAENQNLHHGDTLDADWPTGEETDFHMVLMNPPYSAKWSAASGFLQDERFSEYGVLAPKSKADYAFLLHGLYHLKSNGTMAIVLPHGVLFRGAAEGKIREKLLRSGNIYAVIGLPANLFYNTSIPTCIVVLKKHRDGRDVLFIDASKKFIKGKKQNEMSDEHIDEVMDLYNRRETVDKESYLASFDDIEKNDFNLNIPRYVDNFEKEEEVDINGLLEDMQKTDDEIGKVEGEFVNLLKDLTSSDENIMASLNRYIDMIEG, MGSDKIHHHHHHMAERVLVPTQIGRGDRYYTYTELLAISRRFKQNPNELMVTWILRVYDQGGPALSLNSGELGLLGDLTHDAIFNYRCKALRGAGCQTLLSWLLQAWRQRWESSLHFEATELPFRPWTTMEEGIQLVRELGMIEWIYLDPEGPVDLAPEDVAFTQGLQRRLLTAAPSELRLSLVSLLVRGMTVLEAVMEIQTIADVGLLWRQSHPGRTKLMLGPNPTRKDLLGWLLSHGVPREQVDRQPTKVLLELYIKEAKRSRGHPNYGLNEEQPPPPPYSDQACGEEQPVRHD, MGSDKIHHHHHHMAETIETMGGQAALDHVSRLLSLKVDIRGLEHLPAEGRVVIVANHPTGIGDGVAVYDALKTHRPDIVFYANADAHRVCPRFDDVLIPVEWVEEKRSRERMRLTLSMTREAMEAERALMIFPAGRLAVTDAEGRLSDPPWMSSAVSIARKYGAPIAPIHLEGPWSTLFHLFGRLSRELRDITLFHELLNKTGRRFSLTIGPPVDPEALPRDAEQATEVLKRYVERQLPNEPTSPLT, MGSDKIHHHHHHMAFFGYKDIDKLSGVDLAIYRFIVEHDEQIPYMRVRELARGAHVSNSSVMRFIRKIGYDSFPEFKVSLRSETPIQKPDAPGIQFVQPSAFPADITKIIRLAAQLMVNADNIVFVGIGASAALGEYASRQTSSLGFNSYVVKDPFYPLLPQLRNTSNNVLVAVSVSGQTSELVEMLNDFVNNPEVNIISITSNLESTIARMSRYALTYRATEERIHQYYDLTSQVPCLYIIEALLRELRHQEVVQHRFE, MGSDKIHHHHHHMAFLDVKGIRKTFPGVVALDGVDLEIELGAVHVLAGENGAGKSTLIRALTGLLPLDGGSIHIDGRDALTDRSAFDLVAYVPQELSLFPHMSVAENLFMPFAKAGFGGRVLPYAEMNRQAGAILERFSIKARPEQKVKSIAVSDQQLLQIARATTNKRLKVLILDEPTSSLTTQEIDRLFRILRQFRDNGTAIVFVSHKMEEIFELGTTVTVLRNGKTVGHRPMAAVSEPELIRLMSGDEVQLDQLFQPACAPGETIVTVDGLCGQGFHDISFALRRGEILGFAGLVGAGRSEVMQSMFGFKKPTGGTVLLKGRPLKLGKPSAAVEAGMLYLSEERRLHGILPVLSLRENIGISVLDQTSRGGVISTARERGVVGEVIASYDIKASSPEKKIMFLSGGNQQKAIIGRAMARKPDVLIFDEPTRGIDIRNKVEIYKIMKRLAEDGVAIILVSSEMAELKRCASRIITMYSGKLSGEFATATTDTHTLVGAIIGSAQSGQPPAGAPSPVADLETGARCHVL, MGSDKIHHHHHHMAGDIIVRNKFCDISKVRFRKWDEIDVIFWKFGKSNPERKSGGYYLNAYKDAYIQYNKERIIKYANQAGILPELLGGVAWIESGGMPEEYKFQVFEIKRFLKLKSSPENKTSFGSVAMQIQVAARTLGLNPDILTTRDQLELATCLMEDDFNLWIVAQHLRDMILYDYPSVAALYLTDEQYMMAGIRYNRGIQRKLSEFIRFIDAKPERGSAEFDYISYGVRLLQIRNHIRKLLELNT, MGSDKIHHHHHHMAGSLIERTLRVLETLSSEPDGIPLQRLAERLEIPKSAAHRICNELGRQGYVRQETRTGHYRLSTRLIALGFRYLGSTGASDVLQPILDRLADETGELVRLGVIEGDRQTWIAKAQGTRTGLRYDPDMGREAPLRYTASGQAWLASLDDQAALALLERQGHHNPEHFGPNAPRTDYELLDRLALARERGYTCCVDSSALGTSAFGAVIRHPMQGHTIGVISVAGPSVRLTEDRMHELAPKLLQAVEELSQCSQASQLFSE
